Assay results from paper PMC13423832.

biological target: COX4I1; test: AP-MS (FLAG affinity purification, protein intensity); conditions: HEK293T transiently overexpressing FLAG-tagged COX5A; n = 3 biological replicates, mean ± SD; parent: est. 1.1e10; read off a plot

response [intensity]	Substance
2.5e+10	COX5A-FLAG, wild type (from UniProt P20674) D81W
6e+09	COX5A-FLAG, wild type (from UniProt P20674) T79G
5e+09	COX5A-FLAG, wild type (from UniProt P20674) Y80W
